Data published in patent publication US6703364B2, “Thrombin generation inhibitors” (Cleveland State University, priority 2001, dated 2004).
Entries after “also recorded” stand apart in the source; their conditions may differ. Blank lines part the entries; values can stand above or below the molecule they belong to. Residues, ends and D or L forms follow the SMILES beside them. No end group written: not given here.

Legend:
prothrombinase [1] = molecular target: T1, prothrombinase (Homo sapiens, UniProt P00742); assay: fluorescent prothrombinase assay (DAPA; conversion of prothrombin to α-thrombin); format: biochemical; settings: for IC50: fluorescent assay, DAPA fluorescence, read-out: IC50 for inhibition of prothrombinase activity
T1 construct: purchased Haematologic Technologies, Inc
T1 sequence (P00742 41-179 limits assumed): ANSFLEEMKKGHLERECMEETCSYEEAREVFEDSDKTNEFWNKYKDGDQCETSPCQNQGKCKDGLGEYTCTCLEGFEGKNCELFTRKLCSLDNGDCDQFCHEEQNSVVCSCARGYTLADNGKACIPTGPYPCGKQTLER
T1 sequence (P00742 235-488 limits assumed): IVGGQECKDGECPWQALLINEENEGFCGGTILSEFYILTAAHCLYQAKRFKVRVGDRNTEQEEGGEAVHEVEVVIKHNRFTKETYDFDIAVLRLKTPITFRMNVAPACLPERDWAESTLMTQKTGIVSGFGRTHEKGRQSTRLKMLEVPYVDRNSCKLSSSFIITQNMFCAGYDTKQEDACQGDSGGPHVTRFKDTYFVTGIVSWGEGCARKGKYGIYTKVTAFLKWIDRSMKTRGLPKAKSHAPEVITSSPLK
Excerpt: The assay used to obtain the data shown in FIG. 4 is a fluorescent assay that is described in Example 3 of this document. Briefly, the fluorescent assay, in contrast to the visual assay, measures only one reaction of the many necessary for formation of a blood clot. The fluorescent assay measures conversion of prothrombin to a-thrombin as catalyzed by prothrombinase. A fluorescent assay reaction contains prothrombin, factor Xa, factor Va and a preparation of phospholipid vesicles, which facilitate assembly of the aforementioned components into a functioning prothrombinase enzyme.
Each fluorescent assay also contains a fluorescent compound called dansylarginine-N-(3-ethyl-1,5-pentanediyl)amide (or DAPA for short). DAPA specifically binds to α-thrombin, the product of the prothrombinase reaction. Binding of DAPA by α-thrombin increases the fluorescence intensity of DAPA. In the case where no peptide inhibitor of prothrombinase is present in the reaction, high levels of α-thrombin are produced in the reaction, and DAPA fluorescence is high. When a peptide inhibitor of prothrombinase is present, little α-thrombin is produced in the reaction, and DAPA fluorescence is low. Therefore, by measuring DAPA fluorescence, the inhibitory ability of each peptide is determined.
The identity of reactions containing each peptide, as well as the reactions containing no peptide (labeled “Xa/Va”) or no peptide and no factor Va (labeled “Xa”) is shown on the x-axis of FIG. 4.
Activities of prothrombinase, as measured by DAPA fluorescence, are shown on the y-axis of FIG. 4. […] DAPA fluorescence in the absence of both peptide and factor Va (the bar labeled “APXa” in FIG. 4) is 9% of the APXa/Va activity, and is background fluorescence.
The fluorescence assay specifically measured the conversion of prothrombin to α-thrombin, one essential reaction of the many required for blood clotting (see FIG. 1). […]
The fluorescent properties of DAPA were contributed by the dansyl moiety. When bound to α-thrombin, the fluorescence intensity and lifetime of the dansyl moiety were increased three-fold. Therefore, in this assay, when prothrombinase activity was uninhibited, α-thrombin was produced (see FIG. 1) and DAPA fluorescence was high. When prothrombinase activity was inhibited, as in the presence of peptide prothrombinase inhibitors, α-thrombin was not produced and DAPA fluorescence was low.
In a typical assay, the final concentrations of reagents were as follows: prothrombin, 1.4 μM; factor Xa, 10 nM; factor Va, 1 nM; phospholipid vesicles, 20 μM; DAPA, 3 μM; peptide, 100 μM. […] After centrifugation to isolate the vesicles, the concentration of the vesicles was determined by phosphorus assay (Gomori, 1942, J Lab Clin Med, 27:955-60). […]

prothrombinase [2] = molecular target: T1, prothrombinase; assay: visual blood clotting assay (factor V-depleted plasma, thromboplastin, factor Va); format: biochemical; settings: increasing peptide concentrations, as high as 250 μM
Excerpt: FIG. 3 is a graph showing inhibition of prothrombinase activity by the 42 amino acid peptide NR42, encompassing amino acids 307-348 of the human factor Va heavy chain (SEQ ID NO. 2). The assay used to obtain the data shown in FIG. 3 is a visual blood clotting assay that is described in detail in Example 2 of this document.
Briefly, in the visual blood clotting assay, reactions are set up that contain all components of the blood necessary to form a blood clot and the time required for formation of a visual blood clot is recorded. To test inhibitory activity of the NR42 peptide, different concentrations of NR42 are added to a series of such reactions. […] The time required for an observable blood clot to form in the absence of NR42 peptide (0 μM peptide on the x-axis) is designated as 100% prothrombinase activity, as shown on the y-axis of FIG. 3. Inhibition of blood clotting by […] results in longer clotting times. Longer clotting times are shown on the y-axis of the graph as decreased prothrombinase activity. […]
Factor Va was purchased or, alternatively was produced by treatment of 50 nM of purified factor V (Haematologic Technologies, Inc.) with 1 nM α-thrombin for 10 min followed by the addition of 2 nM hirudin. […] This time was arbitrarily determined to be 100% activity. […]

[3] = molecular target: prothrombinase (factor Xa plus factor Va) (human) (UniProt P00742)
[4] = molecular target: factor Xa (Homo sapiens (Human)) (UniProt P00742)
[5] = series of peptide concentrations

IC50 (prothrombinase [1]; [5]): ~5 µM
Molecule: CC[C@H](C)[C@H](NC(=O)[C@H](Cc1ccccc1)NC(=O)[C@H](Cc1ccc(O)cc1)NC(=O)[C@H](CCC(=O)O)NC(=O)[C@@H](N)Cc1c[nH]c2ccccc12)C(=O)N[C@@H](C)C(=O)N[C@@H](C)C(=O)N[C@@H](CCC(=O)O)C(=O)N[C@@H](CCC(=O)O)C(=O)N[C@H](C(=O)O)C(C)C [AP4, Trp Glu Tyr Phe Ile Ala Ala Glu Glu Val] (H-WEYFIAAEEV-OH)

IC50 (prothrombinase [1]; [5]): ~30 µM
Molecule: CC[C@H](C)[C@H](N)C(=O)N[C@@H](Cc1c[nH]c2ccccc12)C(=O)N[C@@H](CC(=O)O)C(=O)N[C@@H](Cc1ccc(O)cc1)C(=O)N[C@@H](C)C(=O)N1CCC[C@H]1C(=O)N[C@H](C(=O)N[C@H](C(=O)N1CCC[C@H]1C(=O)N[C@@H](C)C(=O)O)[C@@H](C)CC)C(C)C [AP6, Ile Trp Asp Tyr Ala Pro Val Ile Pro Ala] (H-IWDYAPVIPA-OH)

prothrombinase activity relative to the no peptide reaction (prothrombinase [1]; 100 μM peptide, no peptide reaction (Xa/Va) = 100%, remaining activity): approximately 80%
Molecule: NMDKKYRSQH [AP8, 10 amino acid peptide adjacent to and overlapping AP9]

The next lines start with the molecule.

Molecule: DR13: control peptide encompassing amino acids 697 to 709 of the factor Va heavy chain (DADSDYQDELALI)
effect on blood clotting time and prothrombinase activity (in words) (prothrombinase [2]): do not significantly affect blood clotting time and prothrombinase activity
effect on blood clotting time and prothrombinase activity (in words) (prothrombinase [2]; listed as D13R): did not inhibit prothrombinase activity

Molecule: EYFAE (peptide)
IC50, inhibition of prothrombinase, fluorescent assay (DAPA) [3]: 10 to 15 µM

Molecule: P15H: 15 amino acid peptide encompassing amino acids 337-351 of human factor Va; used as negative control (PIIPANMDKKYRSLH) [Peptide P15H]
inhibition of prothrombinase activity (in words) (prothrombinase [1]; series of peptide concentrations, up to approximately 500 μM): did not inhibit prothrombinase; also recorded: does not inhibit prothrombinase activity

Molecule: factor Va (from UniProt P12259)
prothrombinase activity by DAPA fluorescence, factor Xa with and without factor Va (% of the Xa/Va activity) [4]: 9
